Test results taken from US20240327530A1 (ICHNOS SCIENCES, published 2024).

Experiments:
[1] = target: T1, Mouse IL-1RAP, membrane-bound on NIH-3T3 cells (mouse, UniProt Q61730 21-570); assay: flow cytometry on NIH-3T3 cells, PE-Cyanine7 secondary antibody, relative mean fluorescence intensity (isotype subtracted); upper of two curves
T1 construct: Endogenous protein on cells
T1 sequence (looked up): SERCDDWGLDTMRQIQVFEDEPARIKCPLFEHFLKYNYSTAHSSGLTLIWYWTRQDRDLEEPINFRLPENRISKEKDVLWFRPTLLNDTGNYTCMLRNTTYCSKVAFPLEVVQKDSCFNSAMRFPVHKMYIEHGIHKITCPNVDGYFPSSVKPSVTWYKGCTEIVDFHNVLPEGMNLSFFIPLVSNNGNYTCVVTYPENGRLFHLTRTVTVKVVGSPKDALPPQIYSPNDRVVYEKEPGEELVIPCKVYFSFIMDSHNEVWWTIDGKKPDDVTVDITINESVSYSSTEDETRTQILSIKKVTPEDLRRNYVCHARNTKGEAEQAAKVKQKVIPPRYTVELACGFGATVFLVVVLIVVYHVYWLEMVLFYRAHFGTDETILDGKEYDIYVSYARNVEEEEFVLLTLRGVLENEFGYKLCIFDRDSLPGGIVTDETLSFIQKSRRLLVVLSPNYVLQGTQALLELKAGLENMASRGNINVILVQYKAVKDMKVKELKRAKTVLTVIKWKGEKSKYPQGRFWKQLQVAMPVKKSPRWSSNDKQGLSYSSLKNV
Description: (§1) In brief, cells were harvested, counted, and plated at 50′000 cells/well in a 96-well round-bottom plate. The plate was centrifuged at 350 g for 3 minutes and the cells were resuspended in […] of FACS® buffer (PBS (1×)+2.5% FCS+2 mM EDTA+0.05% NaN₃) containing various concentrations (ranging from 20 to 0.0001 μg/ml) of either anti-mouse IL-1RAP_candidate_1 or Isotype control_2 antibodies. Stained cells were incubated for 30 minutes at 4° C., washed twice with FACS® buffer at 350 g for 3 min and resuspended in 100 μl of a monoclonal anti-mouse IgG PE-Cyanine7 secondary antibody (Biolegend, 407114) diluted 1/200 in FACS® buffer. Cells were then washed twice, and resuspended in 200 μl of FACS® buffer containing SYTOX® Green dead cell stain (THERMO FISHER […]®, S34860) and samples were acquired on a CYTOFLEX® instruments (Beckman Coulter). The cells were gated based on size on FSC vs SSC and analysed for PE-Cyanine7-geometric mean (geomean) fluorescence intensity using FLOWJO® software. Finally, relative geomean fluorescence intensity was calculated by subtracting fluorescence of anti-mouse IL-1RAP_candidate_1 per fluorescence of Isotype control_2. As depicted in FIG. 11, anti-mouse IL-1RAP_candidate_1 antibody recognizes membrane-bound IL-1RAP expressed on NIH-3T3 cell line. […] Each data point is a measurement for a given cell line. […]

[2] = target: T1, Mouse IL-1RAP, membrane-bound on …; assay: flow cytometry on NIH-3T3 cells, PE-Cyanine7 secondary antibody, relative mean fluorescence intensity (isotype subtracted); lower of two curves
Description: as §1

[3] = target: T1, Mouse IL-1RAP, membrane-bound on …; assay: cell-based or functional assay
[4] = target: T2, Human IL-1RAP, membrane-bound on human cells (HaCaT, dermal fibroblasts, neutrophils, PBMC, whole blood) (human, UniProt Q9NPH3 21-570); assay: flow cytometry on HaCaT cell line, nonlinear sigmoidal regression
T2 construct: Endogenous protein on cells
T2 sequence: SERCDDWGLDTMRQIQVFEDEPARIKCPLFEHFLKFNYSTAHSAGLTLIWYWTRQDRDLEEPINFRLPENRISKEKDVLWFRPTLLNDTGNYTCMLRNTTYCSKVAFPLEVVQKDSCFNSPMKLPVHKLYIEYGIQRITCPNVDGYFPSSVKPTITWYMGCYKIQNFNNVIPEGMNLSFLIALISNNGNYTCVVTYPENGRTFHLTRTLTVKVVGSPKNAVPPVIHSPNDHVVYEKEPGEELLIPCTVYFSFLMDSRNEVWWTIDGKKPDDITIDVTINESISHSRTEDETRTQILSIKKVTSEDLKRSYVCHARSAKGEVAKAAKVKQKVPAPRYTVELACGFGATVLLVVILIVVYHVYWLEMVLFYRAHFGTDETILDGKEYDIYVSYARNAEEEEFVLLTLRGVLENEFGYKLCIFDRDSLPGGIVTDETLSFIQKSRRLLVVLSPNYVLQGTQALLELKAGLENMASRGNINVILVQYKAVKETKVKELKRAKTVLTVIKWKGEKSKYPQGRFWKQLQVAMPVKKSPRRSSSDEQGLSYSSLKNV
Description: (§2) In brief, cells were harvested, counted, and plated at 50,000 cells/well in a 96-well round-bottom plate. The plate was centrifuged at 350 g for 3 minutes and the cells were resuspended in 50 μl of FACS® buffer (PBS (1×)+2.5% FCS+2 mM EDTA+0.05% NaN₃) containing various concentrations (ranging from 50 to 0.00003 μg/ml) of either anti-human IL-1RAP_candidate_1 or Isotype control_5 antibodies. Stained cells were incubated for 30 minutes at 4° C., washed twice with FACS® buffer at 350 g for 3 min and resuspended in […] of a monoclonal anti-human IgG PE-Cyanine7 secondary antibody (Biolegend, 409316) diluted 1/200 in FACS® buffer. Cells were then washed twice and resuspended in 200 μl of FACS® buffer containing SYTOX® Green dead cell stain (THERMO FISHER […]®, S34860) and samples were acquired on a CYTOFLEX® instruments (Beckman Coulter). The cells were gated based on size on FSC vs SSC and analyzed for PE-Cyanine7-geometric mean (geomean) fluorescence intensity using FLOWJO® software. Finally, relative geomean fluorescence intensity was calculated by subtracting fluorescence of anti-human IL-1RAP_candidate_1 per fluorescence of Isotype control_5. As depicted in FIGS. 6A, 6B, 6C, 6D, and 6E, anti-human IL-1RAP_candidate_1 antibody recognizes membrane-bound IL-1RAP expressed on HaCaT cell line and all primary cells. Multiple independent experiments were performed using multiple donors. […]

[5] = target: T2, Human IL-1RAP, membrane-bound on human …; assay: flow cytometry on human neutrophils, nonlinear sigmoidal regression
Description: as §2

Binder	EC50 (read off the curve) [1] [µg/mL]	EC50 (read off the curve) [2] [µg/mL]	hIL-33-stimulated NIH-3T3, mIL-6 release, EC50 of inhibition [3] [nM]	mIL-1b-stimulated NIH-3T3, mIL-6 release, EC50 of inhibition [3] [nM]	mIL-36s-stimulated NIH-3T3, mCXCL-1 release, EC50 of inhibition [3] [nM]	Kd [4] [nM]	Kd [5] [nM]
Anti-IL-1RAP-C3-A3 mmIgG2a LALA (antibody, V domains shown, also called anti-IL-1RAP-C3-A3 mouse IgG2a LALA) VH: EVQLLESGGGLVQPGGSLRLSCAASGFIFSHYGMSWVRQAPGKGLEWVSAISYDGEGTLYADSVKGRFTISRDNSKNTLYLQMNSLRAEDTAVYYCARFRYYTAFDYWGQGTLVTVSS VL: not shown	~0.01	~0.3	1.02	3.14	1.68	–	–
Anti-IL-1RAP-C8-RecC-ES-IgG1LALA (antibody, V domains shown, also called ISB 880-C8-recC-ES) VH: QVQLVQSGAEVKKPGSSVKVSCKASGSPAEPYAIQWVRQAPGQGLEWMGYIIPSLGGYDYAQKFQGRVTITADESTSTAYMELSSLRSEDTAVYYCARGQTLYESGRQFDIWGQGTLVTVSS VL: not shown	–	–	–	–	–	0.75	1.67
